# Measurements taken from patent US20200170258A1.
# Columns and labels:
# [1] = target: … SENSING 2 (FLS2) of soybean (soybean); assay: cell-based or functional assay
# [2] = target: FLS2 receptor of Arabidopsis thaliana (Arabidopsis thaliana) (UniProt Q9FL28); assay: cell-based or functional assay
# Chain of FLS2 receptor of Arabidopsis thaliana (Arabidopsis thaliana) (Q9FL28 24-1173): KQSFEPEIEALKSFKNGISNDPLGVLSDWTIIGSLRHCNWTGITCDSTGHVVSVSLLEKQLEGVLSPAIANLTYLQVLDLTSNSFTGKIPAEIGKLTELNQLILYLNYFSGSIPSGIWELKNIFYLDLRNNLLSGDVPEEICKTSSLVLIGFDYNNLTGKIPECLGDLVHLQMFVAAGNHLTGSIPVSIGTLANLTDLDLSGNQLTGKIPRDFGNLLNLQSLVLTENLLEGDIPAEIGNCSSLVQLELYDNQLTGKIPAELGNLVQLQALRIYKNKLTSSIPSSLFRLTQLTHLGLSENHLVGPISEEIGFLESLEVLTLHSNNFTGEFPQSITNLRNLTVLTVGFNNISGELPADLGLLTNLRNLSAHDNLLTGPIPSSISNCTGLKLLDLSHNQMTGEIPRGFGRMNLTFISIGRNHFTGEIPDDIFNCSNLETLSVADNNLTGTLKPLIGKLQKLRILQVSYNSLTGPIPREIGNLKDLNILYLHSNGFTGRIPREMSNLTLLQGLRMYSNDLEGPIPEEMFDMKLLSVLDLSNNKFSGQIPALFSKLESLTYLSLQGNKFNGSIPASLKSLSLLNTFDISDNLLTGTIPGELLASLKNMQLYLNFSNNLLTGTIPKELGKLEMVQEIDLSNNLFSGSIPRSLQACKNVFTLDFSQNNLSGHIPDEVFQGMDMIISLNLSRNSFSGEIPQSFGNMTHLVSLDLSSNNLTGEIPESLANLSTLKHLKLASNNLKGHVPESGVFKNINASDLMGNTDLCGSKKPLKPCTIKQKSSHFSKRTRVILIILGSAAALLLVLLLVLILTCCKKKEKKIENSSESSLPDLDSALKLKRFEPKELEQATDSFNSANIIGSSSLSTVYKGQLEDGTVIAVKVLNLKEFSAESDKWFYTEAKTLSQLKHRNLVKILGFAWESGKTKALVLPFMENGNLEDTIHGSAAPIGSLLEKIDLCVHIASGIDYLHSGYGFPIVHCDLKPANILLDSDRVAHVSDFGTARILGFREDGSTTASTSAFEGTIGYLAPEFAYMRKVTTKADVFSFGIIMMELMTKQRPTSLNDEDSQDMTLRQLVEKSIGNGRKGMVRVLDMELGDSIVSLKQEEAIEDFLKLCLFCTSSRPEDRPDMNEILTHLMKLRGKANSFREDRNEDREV
Binder,"% Activity (compared to unmodified Bt.4Q7Flg22), soybean ROS assay [1] [%]","ROS activity in Arabidopsis leaf tissue, Average RLU value, 100 nM [2] [RLU]","ROS activity in Arabidopsis leaf tissue, fold increase over mock treatment, 100 nM [2] [fold]"
DRLSSGKRINSASDDAAGLAIA [Bt.4Q7Flg22],100,258000,3.1
Ac-DRLSSGKRINSASDDAAGLAIA-NH2 [Bt.4Q7Flg22 Mod-1],106,,
